# Laboratory results from paper PMC4788467 (Leukemia, 2015).
# T1: WT1 126-134 (RMFPNAPYL) peptide alone (human)
# T1 chain: RMFPNAPYL
# What was measured:
# [1] = target: biotinylated soluble HLA-A2/WT1_(126) (…) complex (Homo sapiens, HLA-A*02:01, biotin (the complex is biotinylated; site not stated)); assay: SPR
# [2] = target: T1, WT1 126-134 (RMFPNAPYL) peptide alone; assay: ELISA
# [3] = target: HLA-A2/WT1 187-195 (…) monomer (Homo sapiens, HLA-A*02:01, biotin (the complex is biotinylated; site not stated)); assay: ELISA
# [4] = target: HLA-A2/WT1 235-243 (…) monomer (Homo sapiens, HLA-A*02:01, biotin (the complex is biotinylated; site not stated)); assay: ELISA
Kd [1],koff [1],kon [1],binding result [2],binding result [3],binding result [4],Binder
14.1 nM,0.00177 s⁻¹,126000 M⁻¹ s⁻¹,–,–,–,"S3.6 scFv (scFv, V domains shown) VH: EVQLLESGGGLVQPGGSLRLSCAASGFTFSSYAMSWVRQAPGKGLEWVSLIDPWGQETLYADSVKGRFTISRDNSKNTLYLQMNSLRAEDTAVYYCAKLTGRFDYWGQGTLVTVSS VL: DIQMTQSPSSLSASVGDRVTITCRASQSISNYLNWYQQKPGKAPKLLIYSASQLQSGVPSRFSGSGSGTVFTLTISSLQPEDFATYYCQQGPGTPNTFGQGTKVEIK"
58.3 nM,–,94300 M⁻¹ s⁻¹,–,–,–,"Q1L scFv (scFv, V domains shown) VH: EVQLLESGGGLVQPGGSLRLSCAASGFTFSSYAMSWVRQAPGKGLEWVSLIDPWGQETLYADSVKGRFTISRDNSKNTLYLQMNSLRAEDTAVYYCAKLTGRFDYWGQGTLVTVSS VL: DIQMTQSPSSLSASVGDRVTITCRASQSISSYLNWYQQKPGKAPKLLIYSASQLQSGVPSRFSGSGSGTDFTLTISSLQPEDFATYYCQQGPGTPNTFGQGTKVEIK"
3.08 nM,0.000355 s⁻¹,115000 M⁻¹ s⁻¹,no binding,no binding,no binding,"Q2L scFv (scFv, V domains shown) VH: EVQLLESGGGLVQPGGSLRLSCAASGFTFSSYAMSWVRQAPGKGLEWVSLIDPWGQETLYADSVKGRFTISRDNSKNTLYLQMNSLRAEDTAVYYCAKLTGRFDYWGQGTLVTVSS VL: DIQMTQSPSSLSASVGDRVTITCRASQSISSYLNWYQQKPGKAPKLLIYSASLLQSGVPSRFSGSGSGTDFTLTISSLQPEDFATYYCQQGPGTPNTFGQGTKVEIK"
–,5.35e-05 s⁻¹,22000 M⁻¹ s⁻¹,–,–,–,"S3.3 scFv (scFv, V domains shown) VH: EVQLLESGGGLVQPGGSLRLSCAASGFTFSSYAMSWVRQAPGKGLEWVSLIDPWGQETLYADSVKGRFTISRDNSKNTLYLQMNSLRAEDTAVYYCAKLTGRFDYWGQGTLVTVSS VL: NIQMTQSPSSLSASVGDRVTITCRASQSISSYLNWYQQKPGKAPKLLIYSASLLQSGVPSRFSGNGSGTDFTLTISSLQPEDFATYYCQQGPGTPNTFGQGTKVEIK"
0.002 nM,1.15e-06 s⁻¹,484000 M⁻¹ s⁻¹,no binding,no binding,no binding,Q2L scFv-Fc (Fc fusion) VH: EVQLLESGGGLVQPGGSLRLSCAASGFTFSSYAMSWVRQAPGKGLEWVSLIDPWGQETLYADSVKGRFTISRDNSKNTLYLQMNSLRAEDTAVYYCAKLTGRFDYWGQGTLVTVSS VL: DIQMTQSPSSLSASVGDRVTITCRASQSISSYLNWYQQKPGKAPKLLIYSASLLQSGVPSRFSGSGSGTDFTLTISSLQPEDFATYYCQQGPGTPNTFGQGTKVEIK
12.9 nM,0.00191 s⁻¹,148000 M⁻¹ s⁻¹,–,–,–,"S3.1 scFv (scFv, V domains shown) VH: EVQLLESGGGLVQPGGSLRLSCAASGFTFSSYAMSWVRQAPGKGLEWVSLIDPWGQETLYADSVKGRFTISRDNSKNTLYLQMNSLGAEDTAVYYCAKLTGRFDYWGQGTLVTVSS VL: DIQMTQSPSSLSASVGDRVTITCRASQSISSYLNWYQQKPGKAPKLLIYSASQLQSGVPSRFSGSGSGTDFTLTISNLQPEDFATYYCQQGPGTPNTFGQGTKVEIK"
